# Residue numbers refer to the chain shown, from its start.
# B1: mature human FGF21 polypeptide fused with the human Fc fragment at the N-terminus (Fc-FGF21), wild type, Q9NSA1 191S-A (protein)
# chain: HPIPDSSPLLQFGGQVRQRYLYTDDAQQTEAHLEIREDGTVGGAADQSPESLLQLKALKPGVIQILGVKTSRFLCQRPDGALYGSLHFDPEACSFRELLLEDGYNVYQSEAHGLPLHLPGNKSPHRDPAPRGPARFLPLPGLPPALPEPPGILAPQPPDVGSADPLSMVGPSQGRSPSYAS
# B2: mature human FGF21 polypeptide fused with the human Fc fragment at the N-terminus (Fc-FGF21), wild type, Q9NSA1 191S-R (protein)
# chain: B1 chain with A163R
# B3: mature human FGF21 polypeptide fused with the human Fc fragment at the N-terminus (Fc-FGF21), wild type, Q9NSA1 207Y-R (protein)
# chain: B1 chain with A163S, Y179R
# B4: mature human FGF21 polypeptide fused with the human Fc fragment at the N-terminus (Fc-FGF21), wild type, Q9NSA1 207Y-A (protein)
# chain: B1 chain with A163S, Y179A
# B5: mature human FGF21 polypeptide fused with the human Fc fragment at the N-terminus (Fc-FGF21), wild type, Q9NSA1 206S-R (protein)
# chain: B1 chain with A163S, S178R
# B6: mature human FGF21 polypeptide fused with the human Fc fragment at the N-terminus (Fc-FGF21), wild type, Q9NSA1 204S-R (protein)
# chain: B1 chain with A163S, S176R
# B7: mature human FGF21 polypeptide fused with the human Fc fragment at the N-terminus (Fc-FGF21), wild type, Q9NSA1 206S-A (protein)
# chain: B1 chain with A163S, S178A
# B8: mature human FGF21 polypeptide fused with the human Fc fragment at the N-terminus (Fc-FGF21), wild type, Q9NSA1 204S-A (protein)
# chain: B1 chain with A163S, S176A
# Biological target: human β-Klotho extracellular domain (aa1–992) fused with a 6 × His tag at the C-terminus, Q86Z14
# Sequence (Q86Z14 53-992): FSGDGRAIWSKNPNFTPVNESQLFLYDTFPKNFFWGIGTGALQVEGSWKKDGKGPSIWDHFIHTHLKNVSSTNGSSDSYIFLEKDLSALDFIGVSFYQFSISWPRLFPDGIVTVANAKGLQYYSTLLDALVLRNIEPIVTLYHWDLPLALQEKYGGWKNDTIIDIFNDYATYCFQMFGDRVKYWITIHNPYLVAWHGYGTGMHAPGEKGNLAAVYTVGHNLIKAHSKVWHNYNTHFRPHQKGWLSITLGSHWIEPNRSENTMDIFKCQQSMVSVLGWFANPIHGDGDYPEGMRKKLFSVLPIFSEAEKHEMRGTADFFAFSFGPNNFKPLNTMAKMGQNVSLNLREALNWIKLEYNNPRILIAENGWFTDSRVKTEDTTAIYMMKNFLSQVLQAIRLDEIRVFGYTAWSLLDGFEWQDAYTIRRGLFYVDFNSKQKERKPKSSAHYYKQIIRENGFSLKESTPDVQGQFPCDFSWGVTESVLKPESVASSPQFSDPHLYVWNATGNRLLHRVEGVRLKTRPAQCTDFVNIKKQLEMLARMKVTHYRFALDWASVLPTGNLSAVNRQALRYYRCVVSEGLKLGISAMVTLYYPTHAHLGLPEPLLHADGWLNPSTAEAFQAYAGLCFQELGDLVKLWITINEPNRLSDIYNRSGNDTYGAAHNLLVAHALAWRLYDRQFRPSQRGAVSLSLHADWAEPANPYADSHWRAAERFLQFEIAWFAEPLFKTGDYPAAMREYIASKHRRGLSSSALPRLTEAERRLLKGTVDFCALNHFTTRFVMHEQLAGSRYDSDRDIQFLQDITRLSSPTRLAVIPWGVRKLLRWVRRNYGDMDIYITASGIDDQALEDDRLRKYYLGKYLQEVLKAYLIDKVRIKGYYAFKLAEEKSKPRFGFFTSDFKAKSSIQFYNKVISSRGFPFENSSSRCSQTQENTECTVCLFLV
# Test: solid-phase binding assay
# Settings: chain shown with the change;; parent: est. 1.0; read off a plot
row,Binder,ratio to parent
1,B1,0.6
2,B2,350
3,B3,530
4,B4,180
5,B5,170
6,B6,250
7,B7,120
8,B8,120
